Assay results: patent US20250277059A1, “ANTIBODY USED TO TREAT CORONAVIRUS INFECTION” (priority 2022, published 2025)
Numbering of substitutions follows the chain as printed. In names and notes the source's numbering stands.

T1: TMPRSS-11D (human, UniProt O60235)
T1 sequence (single chain, looked up): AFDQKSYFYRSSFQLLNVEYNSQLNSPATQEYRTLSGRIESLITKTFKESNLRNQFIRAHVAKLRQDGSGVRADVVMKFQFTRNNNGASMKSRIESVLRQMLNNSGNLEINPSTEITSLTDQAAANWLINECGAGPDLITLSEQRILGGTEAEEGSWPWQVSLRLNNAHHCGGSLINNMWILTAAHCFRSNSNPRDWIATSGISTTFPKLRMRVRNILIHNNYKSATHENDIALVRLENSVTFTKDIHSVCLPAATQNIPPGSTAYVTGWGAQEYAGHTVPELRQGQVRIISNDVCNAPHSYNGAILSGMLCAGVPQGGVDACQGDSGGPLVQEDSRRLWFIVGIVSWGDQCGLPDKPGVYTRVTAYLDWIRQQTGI

T2: TMPRSS-11E (human, UniProt Q9UL52)
T2 sequence (single chain, looked up): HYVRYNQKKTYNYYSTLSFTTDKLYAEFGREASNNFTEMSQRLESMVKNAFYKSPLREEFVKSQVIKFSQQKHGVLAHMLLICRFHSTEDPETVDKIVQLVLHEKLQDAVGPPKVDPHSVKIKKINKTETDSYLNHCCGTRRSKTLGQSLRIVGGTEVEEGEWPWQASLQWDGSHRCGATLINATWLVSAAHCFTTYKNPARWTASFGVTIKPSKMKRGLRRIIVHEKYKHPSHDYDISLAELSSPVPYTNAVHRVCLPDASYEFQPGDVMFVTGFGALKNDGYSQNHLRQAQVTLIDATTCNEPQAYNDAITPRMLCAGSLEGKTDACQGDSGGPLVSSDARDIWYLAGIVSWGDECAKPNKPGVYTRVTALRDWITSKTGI

T3: TMPRSS-13 (human, UniProt Q9BYE2)
T3 sequence (single chain, looked up): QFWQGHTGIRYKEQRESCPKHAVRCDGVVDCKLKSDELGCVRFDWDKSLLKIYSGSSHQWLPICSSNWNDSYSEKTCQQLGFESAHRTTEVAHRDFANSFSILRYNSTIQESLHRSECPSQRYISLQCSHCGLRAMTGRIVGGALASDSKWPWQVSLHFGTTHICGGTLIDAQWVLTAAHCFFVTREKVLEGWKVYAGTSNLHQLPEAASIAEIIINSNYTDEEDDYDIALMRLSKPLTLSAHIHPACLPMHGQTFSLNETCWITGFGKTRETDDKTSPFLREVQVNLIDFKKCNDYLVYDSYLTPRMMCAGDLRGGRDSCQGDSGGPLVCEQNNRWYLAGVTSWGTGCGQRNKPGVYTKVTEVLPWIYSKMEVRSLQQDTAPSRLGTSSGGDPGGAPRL

B1: humanized 752-1 IgG4 (S108P) prototype #1 (antibody, V domains shown)
VH: QVQLVQSGAEVKKPGASVKVSCKASGYTFTSCGISWVRQAPGQGLEWMGEIYPRGGNTYYNEKFKGRVTMTTDTSTSTAYMELRSLRSDDTAVYYCARENGNYDPLFAYWGQGTLVTVSS
VL: DIQMTQSPSSLSASVGDRVTITCKASQDINKYIAWYQQKPGKAPKLLIYYTSTLQPGVPSRFSGSGSGTDFTFTISSLQPEDIATYYCLQYYNLWTFGGGTKVEIK
notes: also called humanized #1; hu #1
B2: humanized 752-1 IgG4 (S108P) prototype #3 (antibody, V domains shown)
VH: QVQLQQSGTGLARPGASVKLSCKASGYTFTSCGISWVTQRAGQGLEWIGEIYPRGGNTYYNEKFKGKATLTADKSSSSAYMELRGLTAEDSAVYFCARENGNYDPLFAYWGQGTTLTVSS
VL: B1 VL
notes: also called humanized #3; hu #3
B3: humanized 752-1 IgG4 (S108P) prototype #4 (antibody, V domains shown)
VH: B2 VH
VL: B1 VL with Y49H
notes: also called humanized #4; hu #4
B4: humanized 752-1 IgG4 (S108P) prototype #2 (antibody, V domains shown)
VH: B1 VH
VL: B1 VL with Y49H
notes: also called humanized #2; hu #2
B5: humanized 2228-15 IgG4 (S108P) prototype #4 (antibody, V domains shown)
VH: EIQLVQSGAEVKKPGSSVKVSCKASGYTFTDYYINWMRQAPGQGLEWIGWIFPGSGSSYYNAIFKGRATLTVDTSTNTAYMELSSLRSEDTAFYFCARGDFGNFGGFFTYWGQGTLVTVSS
VL: DIVMTQSPDSLAVSLGERATINCRASKSVSTSGYSFMHWYQQKPGQPPKLLIYLASNLESGVPDRFSGSGSGTDFTLTIRPLQAEDVAVYYCQHSRELPLTFGQGTKLEIK
notes: as for B3
B6: humanized 2228-15 IgG4 (S108P) prototype #1 (antibody, V domains shown)
VH: QVQLVQSGAEVKKPGASVKVSCKASGYTFTDYYINWVRQAPGQGLEWMGWIFPGSGSSYYNAIFKGRVTMTRDTSISTAYMELSRLRSDDTAVYYCARGDFGNFGGFFTYWGQGTLVTVSS
VL: DVVMTQSPLSLPVTLGQPASISCRASKSVSTSGYSFMHWFQQRPGQSPRRLIYLASNLESGVPDRFSGSGSGTDFTLKISRVEAEDVGVYYCQHSRELPLTFGGGTKVEIK
notes: as for B1
B7: humanized 2228-15 IgG4 (S108P) prototype #3 (antibody, V domains shown)
VH: B5 VH
VL: B6 VL
notes: as for B2
B8: 2114_16: mouse anti-human TMPRSS2 monoclonal antibody, IgG2c λ; VH SEQ ID NO: 106, VL SEQ ID NO: 107 (antibody, V domains shown)
VH: EVQLQQSGPELVKPGASVKISCKASGYTFTDYYMNWVKRRHGKSLEWIGNINPNNGGTSYNQKFKGKATLTVDKSSSTAYMELRSLTSEDSVVYYCAREGDLFPFAYWGQGTLVTVSA
VL: QAVVTQESALTTSPGETVTLTCRSSIGTVTTSNFANWVQEKPDHLFTGLIGASNNRAPGVPARFSGSLIGDKAALTITGAQTEDEAIYFCALWFSNHWVFGGGTKLTVL
modifications: mouse IgG2c lambda constant regions; 2114_16 VH; 2114_16 VL
B9: 1831_15: mouse anti-human TMPRSS2 monoclonal antibody, IgG2b κ; VH SEQ ID NO: 98, VL SEQ ID NO: 99 (antibody, V domains shown)
VH: QVQLQQPGAELVKPGASVKLSCKASGYSFTTYWMHWVRQRPGQGLEWIGIIHPNSGTTNYNEKFKSKASLTVDKSSSTAYMQLSSLTSEDSAVYYCARLLWDYFDYWGQGTTLTVSS
VL: DIVMSQSPSSLAVSAGEKVTMSCKSSQSLLNSRTRKNFLAWYQQKPGQSPKLLIYWASTRESGVPDRFTGSGSGTDFTLTISSVQAEDLAVYYCKQSYNLYTFGGGTKLEIK
modifications: mouse IgG2b kappa constant regions; 1831_15 VH; 1831_15 VL
B10: 2228_15 antibody (antibody, V domains shown)
VH: QVQLQQSGPELVKPGTSVKISCKASGYTFTDYYINWVKQRPGQGLEWIGWIFPGSGSSYYNAIFKGKATLTVDTSSNTAHMSLSSLTSDDSAVYFCARGDFGNFGGFFTYWGQGTLVTVSA
VL: DVVVTQSPASLAVSLGQRATISCRASKSVSTSGYSFMHWYQQKPGQPPKLLIYLASNLESGVPARFSGSGSGTDFILNIHPVEEEDAATYYCQHSRELPLTFGAGTKLELK
B11: 752_1 antibody (antibody, V domains shown)
VH: B2 VH with T9A, G10E, T38K, A41T, S78T, G85S, A88S, T115L, L116V, S120A
VL: DIQMTQSPSSLSASLGGKVTITCKASQDINKYIAWYQHKPGKGPRLLIHYTSTLQPGIPSRFSGSGSGRDYSFSIYNLEPEDIATYYCLQYYNLWTFGGGTKLEIK

molecular target: T4, Human TMPRSS2 recombinant protein, extracellular region (N-terminal His tag, C-terminal Strep-tag II) (human, UniProt O15393 106-492); experiment: SPR (BIACore); details: not given
T4 construct: also called Human TMPRSS2 recombinant proteins; extracellular region of human TMPRSS2
T4 sequence (O15393 other isoform, or with tags, fused parts or gaps limits assumed): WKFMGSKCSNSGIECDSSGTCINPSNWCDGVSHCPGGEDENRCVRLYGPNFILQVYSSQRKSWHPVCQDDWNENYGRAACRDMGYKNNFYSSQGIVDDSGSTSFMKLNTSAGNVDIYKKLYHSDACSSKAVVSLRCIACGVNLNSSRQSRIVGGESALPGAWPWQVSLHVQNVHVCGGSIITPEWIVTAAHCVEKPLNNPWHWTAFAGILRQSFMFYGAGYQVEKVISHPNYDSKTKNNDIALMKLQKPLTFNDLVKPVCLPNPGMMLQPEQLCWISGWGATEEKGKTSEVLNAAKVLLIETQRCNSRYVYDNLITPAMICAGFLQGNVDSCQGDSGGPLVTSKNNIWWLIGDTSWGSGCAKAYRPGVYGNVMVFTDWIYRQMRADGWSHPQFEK

Molecule | Kd [nM] | koff [s⁻¹] | kon [M⁻¹ s⁻¹]
B1 | 22.6 | 0.00932 | 412000
B2 | 2.11 | 0.00469 | 2.22e+06
B3 | 2.44 | 0.00611 | 2.5e+06
B4 | 13.4 | 0.0152 | 1.13e+06
B5 |  | 0.0001 | 1.44e+06
B6 | 12.3 | 0.0641 | 5.22e+06
B7 | 0.938 | 0.000774 | 825000

molecular target: T5, human TMPRSS2 (Homo sapiens, UniProt O15393); experiment: Competitive inhibition between anti-TMPRSS2 mAbs (flow cytometry); type: binding; details: FIG. 3C
Target sequence in this assay (O15393 whole entry): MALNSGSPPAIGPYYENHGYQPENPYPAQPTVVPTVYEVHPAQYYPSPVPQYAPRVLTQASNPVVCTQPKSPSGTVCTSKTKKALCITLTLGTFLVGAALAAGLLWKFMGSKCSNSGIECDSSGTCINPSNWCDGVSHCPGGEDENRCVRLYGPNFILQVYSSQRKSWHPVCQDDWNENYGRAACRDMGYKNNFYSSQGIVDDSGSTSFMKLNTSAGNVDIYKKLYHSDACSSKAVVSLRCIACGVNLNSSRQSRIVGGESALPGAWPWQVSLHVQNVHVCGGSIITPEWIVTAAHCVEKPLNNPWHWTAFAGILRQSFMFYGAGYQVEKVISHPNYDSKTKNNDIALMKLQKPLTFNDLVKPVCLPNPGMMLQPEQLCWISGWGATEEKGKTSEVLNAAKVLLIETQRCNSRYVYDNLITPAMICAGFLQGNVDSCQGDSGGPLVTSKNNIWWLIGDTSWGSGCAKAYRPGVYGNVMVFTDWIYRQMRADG

Molecule | competition with 1831_15 antibody for binding to human TMPRSS2
B8 | weakly competed

system: TMPRSS2 of non-human animal species; experiment: not given; type: binding; details: Table 3; species whose TMPRSS2 is bound

Molecule | Cross-reactivity
B9 | Cynomolgus monkey

molecular target: T4, Human TMPRSS2 recombinant protein, …; experiment: SPR (BIAcore); rounded repeat of Table 1; details: not given

Molecule | Kd [nM]
B10 | 8.4

molecular target: T6, Human TMPRSS2 expressed on cells (human, UniProt O15393 1-492); experiment: not given; details: not given
T6 construct: also called TMPRSS2 expressing cells; Daudi-TMPRSS2 transfectant
T6 sequence (O15393 whole entry): as above

Molecule | APC median at 3 µg/ml
B1 | 1450
B2 | 1560
B3 | 1650
B4 | 1410
B5 | 1990
B6 | 579
B7 | 862

molecular target: T1, TMPRSS-11D; experiment: ELISA, Strep-tagged protein on streptavidin plate; details: not given

Molecule | binding result
B10 | no binding (tested: 10 µg/mL)
B11 | no binding (tested: 10 µg/mL)

molecular target: T2, TMPRSS-11E; experiment: ELISA, Strep-tagged protein on streptavidin plate; details: not given

Molecule | binding result
B10 | no binding (tested: 10 µg/mL)
B11 | no binding (tested: 10 µg/mL)

molecular target: TMPRSS-11F (human, UniProt Q6ZWK6); experiment: ELISA, Strep-tagged protein on streptavidin plate; details: not given
Sequence (Q6ZWK6 54-438 limits assumed): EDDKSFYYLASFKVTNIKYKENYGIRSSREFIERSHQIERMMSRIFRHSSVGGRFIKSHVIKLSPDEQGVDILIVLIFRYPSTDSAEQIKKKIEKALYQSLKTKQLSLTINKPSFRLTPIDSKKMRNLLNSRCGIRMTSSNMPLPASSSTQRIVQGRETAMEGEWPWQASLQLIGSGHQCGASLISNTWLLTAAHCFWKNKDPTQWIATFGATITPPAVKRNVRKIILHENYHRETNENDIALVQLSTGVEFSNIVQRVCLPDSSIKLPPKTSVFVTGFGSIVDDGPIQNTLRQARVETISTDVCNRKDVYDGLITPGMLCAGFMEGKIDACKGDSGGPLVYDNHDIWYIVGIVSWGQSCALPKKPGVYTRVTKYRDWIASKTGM

Molecule | binding result
B10 | no binding (tested: 10 µg/mL)
B11 | no binding (tested: 10 µg/mL)

molecular target: T3, TMPRSS-13; experiment: ELISA, Strep-tagged protein on streptavidin plate; details: not given

Molecule | binding result
B10 | no binding (tested: 10 µg/mL)
B11 | no binding (tested: 10 µg/mL)

molecular target: T4, Human TMPRSS2 recombinant protein, …; experiment: SPR (BIAcore), captured mAb, soluble human TMPRSS2 extracellular region; details: not given

Molecule | Kd [nM]
B10 | 8.41

molecular target: T5, human TMPRSS2; experiment: BIACore binding assay of anti-TMPRSS2 antibodies; details: Table 1, mouse mAbs, 25° C.
Target sequence in this assay (O15393 106-492 limits assumed): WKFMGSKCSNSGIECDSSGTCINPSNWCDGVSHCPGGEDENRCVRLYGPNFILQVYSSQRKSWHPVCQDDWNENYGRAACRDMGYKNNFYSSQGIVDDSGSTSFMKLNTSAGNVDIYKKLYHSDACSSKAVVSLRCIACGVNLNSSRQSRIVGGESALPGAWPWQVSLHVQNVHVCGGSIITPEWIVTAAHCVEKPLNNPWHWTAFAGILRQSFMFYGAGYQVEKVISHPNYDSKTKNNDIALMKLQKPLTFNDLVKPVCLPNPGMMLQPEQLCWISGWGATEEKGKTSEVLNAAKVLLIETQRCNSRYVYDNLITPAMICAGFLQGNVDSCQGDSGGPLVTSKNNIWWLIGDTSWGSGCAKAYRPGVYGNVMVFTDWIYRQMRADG

Molecule | ka [M⁻¹ s⁻¹] | kd [s⁻¹]
B9 | 563000 | 0.000236
B8 | 570000 | 0.000591
